Test results from PMC4622719.
Like-named read-outs stand apart in the source and are kept apart here.

Legend:
[1] = target: human neonatal Fc receptor (human) (UniProt P55899); experiment: SPR
[2] = target: adalimumab (human); experiment: BLI
[3] = target: adalimumab (human); experiment: BLI; remark: listed apart in the source

Sequence of UniProt P55899 (P55899 24-297): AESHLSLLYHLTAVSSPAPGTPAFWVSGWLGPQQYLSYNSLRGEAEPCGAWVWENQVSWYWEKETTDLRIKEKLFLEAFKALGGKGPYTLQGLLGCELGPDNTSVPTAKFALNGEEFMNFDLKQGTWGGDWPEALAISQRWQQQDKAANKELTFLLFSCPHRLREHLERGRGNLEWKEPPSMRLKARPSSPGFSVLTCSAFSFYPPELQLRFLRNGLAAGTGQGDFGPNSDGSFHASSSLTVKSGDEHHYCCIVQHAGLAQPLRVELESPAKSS

KD1 [1]	KD2 [1]	ka1 [1]	ka2 [1]	kd1 [1]	kd2 [1]	Kd [2]	koff [2]	kon [2]	koff [3]	Substance
8.77 nM	467 nM	906000 M⁻¹ s⁻¹	362000 M⁻¹ s⁻¹	0.0073 s⁻¹	0.141 s⁻¹	–	–	–	–	adalimumab (antibody)
–	–	–	–	–	–	4.6 pM	5.5e-06 s⁻¹	1.32e+06 M⁻¹ s⁻¹	4.81e-05 s⁻¹	recombinant human tumor necrosis factor (from UniProt P01375 77-233) (ligand)
